This series deals with the molecule itself. Nature of the series: SEC. For orientation: SEC sorts molecules by how far they enter the pores of the column.

B1: 6xHis-VP40 (recombinant full-length EBOV VP40, dimer) (natural protein)
chain: MRRVILPTAPPEYMEAIYPVRSNSTIARGGNSNTGFLTPESVNGDTPSNPLRPIADDTIDHASHTPGSVSSAFILEAMVNVISGPKVLMKQIPIWLPLGVADQKTYSFDSTTAAIMLASYTITHFGKATNPLVRVNRLGPGIPDHPLRLLRIGNQAFLQEFVLPPVQLPQYFTFDLTALKLITQPLPAATWTDDTPTGSNGALRPGISFHPKLRPILLPNKSGKKGNSADLTSPEKIQAIMTSLQDFKIVPIDPTKNIMGIEVPETLVHKLTGKKVTSKNGQPIIPVLLPKYIGLDPVAPGDLTMVITQDCDTCHSPASLPAVIEK
For B1, the binding result is “binds”.

For the origin of these results see PMC11565396 (Journal of Lipid Research, 2024).
